Tests used:
amyloid β 1-40 = assay: Degradation of Aβ 1-40 in human plasma pool (Example 28); assay type: biochemical; conditions: room temperature, 1 hour
Procedure: Blood from twelve individuals (6 females and 6 males) were collected into pre-chilled heparin-plasma tubes at the healthcare centre (AstraZeneca) at three different time points. Plasma was prepared by centrifugation at 2500×g for 20 min at 4° C. Plasma samples were collected and transferred to pre-chilled polypropylene tubes and immediately frozen and stored at −70° C. prior to use. Plasma was thawed and pooled from 12 individuals just before the experiment. Aβ 1-40 and 1-42 in plasma pool was degraded by human Fc-Nep or mouse Fc-Nep with corresponding vehicles (50 mM Tris-HCl, 150 mM NaCl pH 7.5). The following final concentrations of the Fc-Nep constructs were used, 100, 32, 10, 3.2, 1, 0.3, 0.1 and […] and the degradation occurred at room temperature for 1 hour while shaking on an orbital shaker. The enzymatic reaction was stopped by adding Phosphoramidone (10 μM final concentration). Concentration of amyloid β 1-40 in human plasma pool was measured using ELISA kit (Biosource; KHB3481) according to the manufacturers instructions.

[1] = Plasma exposure (Example 25); assay type: in vivo, C57BL/6 mice; conditions: for Mean plasma exposure: 5 mg/kg i.v.
Procedure: 20-21 weeks old female C57BL/6 mice (8 mice/group) received vehicle or hFc-Nep at 5 mg/kg as a single intravenous injection and Aβ40 was analysed at different time points after injection (between 1.5-168 hours, i.e., up to 1 week). The γ-secretase inhibitor M-550426 was given per orally and the animals were treated for 3 hours. A blank group was also included in the study. […] Blood collection, plasma processing and measurement of mouse Aβ40 levels in plasma were basically as described in Example 27.

Aβ 1-42 = assay: Degradation of Aβ 1-42 in APPswe-tg mouse plasma pool (Example 28); assay type: biochemical; conditions: room temperature, 1 hour
Procedure: Mouse plasma collected from 9 animals was stored at −70° C. Plasma was thawed and pooled just before the experiment. Aβ 1-40 and 1-42 in plasma pool was degraded by human Fc-Nep or mouse Fc-Nep with corresponding vehicles (50 mM Tris-HCl, 150 mM NaCl pH 7.5). The following final concentrations of the Fc-Nep constructs were used, 100, 32, 10, 3.2, 1, 0.3, 0.1 and […] and the degradation occurred at room temperature for 1 hour while shaking on an orbital shaker. The enzymatic reaction was stopped by adding Phosphoramidone (10 μM final concentration).
After degradation, a final concentration of 4.7 mM EDTA was added to the tg-mouse plasma tubes and the plasma samples were diluted 3 times in sample diluent, before the concentration of Aβ42 was analyzed using ELISA kit Innotest® β-Amyloid1-42 (Innogenetics, lot#177462, ref#80177) according to the manufacturers instructions. The highest concentration (100 μg/ml) of human Fc-Nep and mouse Fc-Nep degraded human plasma amyloid β 1-40 by 71% and 77%, respectively and Aβ 1-42 by 34% and 53%, respectively, as compared to plasma without Fc-Nep treatment.

[2] = test system: fluorogenic peptide substrate V—Mca-Arg-Pro-Gly-Phe-Ser-Ala-Phe-Lys(Dnp)-OH; assay: Neprilysin enzyme activity FRET assay, purified protein; assay type: biochemical; conditions: purified fusion protein
Procedure: The Neprilysin enzymatic activity was determined in a fluorescence resonance energy transfer (FRET) assay. Recombinant Human Neprilysin (R&D Systems), culture medium from Neprilysin or Fc-Neprilysin producing cells (AZ Sodertalje) or purified Neprilysin or Fc-Neprilysin was added into 96-well plate containing 10 μM of fluorogenic peptide substrate V—Mca-Arg-Pro-Gly-Phe-Ser-Ala-Phe-Lys(Dnp)-OH (R&D Systems). The final concentration of the control recombinant human Neprilysin was 0.1 or 0.25 μg/ml. 10 μM of Neprilysin inhibitor phosphoramidone (BIOMOL) was added into some wells in order to control the specificity of the signal in the assay and verify the specific Neprilysin activity. Following addition of all components to wells, plate was immediately placed into a fluorescent plate reader (Ascent) and signal was recorded for every minute for 20 minutes at the excitation 340 nm and emission 405 nm. The activity of enzyme was evaluated by calculating the velocity of reaction−Slope coefficient=ΣΔRFU/Δt. In order to compare the specific activity of the commercial recombinant Neprilysin and Fc-Neprilysin fusion protein, we introduced the specific activity coefficient, which is calculated according to this formula: Specific activity=slope coefficient/pmol of Neprilysin or monomer of Fc-Neprilysin in assay. […]

[3] = Pharmacokinetics of Fc-Nep and commercial neprilysin, single i.v. dose (Example 20); assay type: in vivo; conditions: mice, single i.v. dose 1 alternatively 5 mg/kg
Procedure: The Fc-Nep fusion protein was developed to improve the pharmacokinetic entities of neprilysin with the specific aims to reduce clearance and improve half-life. To test this we have administrated a single i.v. dose of either 1 mg/kg commercial neprilysin or 1 alternatively 5 mg/kg in-house produced Fc-Nep to mice. At set times after dosing blood samples were drawn from the tail vein or by heart puncture at termination. Upon sampling into tubes containing EDTA the aliquots were put on ice. Plasma was prepared by centrifugation within 15 minutes of sampling (typically 1500 g at 4° C. for 10 min) and immediately frozen. Plasma concentrations of Fc-Nep and neprilysin were determined via immunoassays using either anti-Nep for commercial neprilysin or anti-human IgG for Fc-Nep as capture antibodies while both substances were detected via an anti-Nep antibody. Pharmacokinetic parameters are calculated using a software package (WinNonlin, Pharsight Corporation, USA) and in this example experiment the calculated half-life had increased from about 5 minutes for Nep to about 20 hours for Fc-Nep.

[4] = highest concentration 100 μg/ml

B1: Fc-Neprilysin: extracellular domain of human Neprilysin fused to the human IgG2 Fc domain (including hinge), Fc at N-terminus; SEQ ID NO 11 (protein)
chain: ERKCCVECPPCPAPPVAGPSVFLFPPKPKDTLMISRTPEVTCVVVDVSHEDPEVQFNWYVDGVEVHNAKTKPREEQFNSTFRVVSVLTVVHQDWLNGKEYKCKVSNKGLPAPIEKTISKTKGQPREPQVYTLPPSREEMTKNQVSLTCLVKGFYPSDIAVEWESNGQPENNYKTTPPMLDSDGSFFLYSKLTVDKSRWQQGNVFSCSVMHEALHNHYTQKSLSLSPGKYDDGICKSSDCIKSAARLIQNMDATTEPCTDFFKYACGGWLKRNVIPETSSRYGNFDILRDELEVVLKDVLQEPKTEDIVAVQKAKALYRSCINESAIDSRGGEPLLKLLPDIYGWPVATENWEQKYGASWTAEKAIAQLNSKYGKKVLINLFVGTDDKNSVNHVIHIDQPRLGLPSRDYYECTGIYKEACTAYVDFMISVARLIRQEERLPIDENQLALEMNKVMELEKEIANATAKPEDRNDPMLLYNKMTLAQIQNNFSLEINGKPFSWLNFTNEIMSTVNISITNEEDVVVYAPEYLTKLKPILTKYSARDLQNLMSWRFIMDLVSSLSRTYKESRNAFRKALYGTTSETATWRRCANYVNGNMENAVGRLYVEAAFAGESKHVVEDLIAQIREVFIQTLDDLTWMDAETKKRAEEKALAIKERIGYPDDIVSNDNKLNNEYLELNYKEDEYFENIIQNLKFSQSKQLKKLREKVDKDEWISGAAVVNAFYSSGRNQIVFPAGILQPPFFSAQQSNSLNYGGIGMVIGHEITHGFDDNGRNFNKDGDLVDWWTQQSASNFKEQSQCMVYQYGNFSWDLAGGQHLNGINTLGENIADNGGLGQAYRAYQNYIKKNGEEKLLPGLDLNHKQLFFLNFAQVWCGTYRPEYAVNSIKTDVHSPGNFRIIGTLQNSAEFSEAFHCRKNSYMNPEKKCRVW
- Degradation of amyloid β 1-40 compared to plasma without treatment (amyloid β 1-40; [4]): 66%
- EC50 (amyloid β 1-40): 580 nM
- Mean plasma exposure ([1]; 1 week (168 hours)): 38 µg/mL
- Mean plasma exposure ([1]; 1.5 hours): 87 µg/mL
- half-life in mice ([1]; 5 mg/kg single i.v.): considerably long
- Degradation of Aβ 1-42 compared to plasma without treatment (Aβ 1-42; [4]): 34%
- EC50 (Aβ 1-42): 1300 nM
- Specific activity (slope coefficient/pmol) [2]: 14.1
- calculated half-life [3]: about 20 hours

— patent US20080242590A1, “New Method 706” (ASTRAZENECA AB, priority 2007, published 2008)
